Laboratory results from the supplement of paper PMC10724198.
± gives the standard deviation of the averaged measurements.

System: Saccharomyces cerevisiae
Assay: protein stability index of tFT-peptide fusion (C-terminal peptide) (PSI (0-1 scale)); higher = more stable (slower turnover)
Details: genetic background: wild type; temperature: 30 C
Description: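 Multiplexed protein stability (MPS) profiling in S. cerevisiae. Random 12-aa peptides (tFT-X12 library) are fused to the C-terminus of a sfGFP-mCherry tandem fluorescent timer, after mCherry and a GGGS linker. Cells are FACS-sorted into 8 mCherry/sfGFP bins and deep-sequenced. The protein stability index (PSI) is the read-weighted bin average, scaled from 0 (unstable) to 1 (stable). Only peptides with >10 reads are reported; cells were grown at 30 °C in SC-His with glucose.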
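Further: PSI is a weighted mean of sequencing reads over stability bins, variants kept only with over 10 reads, mCherry proximal and sfGFP distal, peptide attached via GGGS linker.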

| Sequence | protein stability index |
| --- | --- |
| IVQETKYFVRRS | 0.685 ± 0.082 |
| IVRTMLKLFVDV | 0.5827 ± 0.0037 |
| IVSGVSVHLGVG | 0.6115 ± 0.0029 |
| IVVRPAGGGTQS | 0.663 ± 0.019 |
| IWGKREDKNVYR | 0.71 ± 0.025 |
| IWPGASLALLTS | 0.606 ± 0.011 |
| IWRPGVAQSGLA | 0.7205 ± 0.0055 |
| IYAQFCSLYDHP | 0.702 ± 0.013 |
| IYERTEENKRVN | 0.591 ± 0.0088 |
| IYSFFHHRFVTV | 0.546 ± 0.0081 |
| KAASSLSRPAHL | 0.734 ± 0.074 |
| KAIVKKCTDSED | 0.679 ± 0.011 |
| KALNLAAAILYG | 0.638 ± 0.015 |
| KALQRKCRKRHK | 0.673 ± 0.039 |
| KCKGTCESRRGI | 0.833 ± 0.034 |
| KCPRPDATLYQS | 0.721 ± 0.042 |
| KDKKKENKNNGE | 0.6787 ± 0.0036 |
| KDKSQKKERQKT | 0.664 ± 0.029 |
| KDQRAKRRRREE | 0.679 ± 0.08 |
| KDRRNKNKRQEY | 0.633 ± 0.012 |
| KECGICGAVVGL | 0.63 ± 0.092 |
| KEENKKKKKKRI | 0.755 ± 0.081 |
| KEGRKKKRQINT | 0.803 ± 0.076 |
| KEHKSQRSRVWR | 0.719 ± 0.011 |
| KEKKAKKSRKKR | 0.665 ± 0.084 |

| Sequence | protein stability index |
| --- | --- |
| KEKKNNRQRKER | 0.642 ± 0.016 |
| KELPAGRQSEPD | 0.636 ± 0.034 |
| KERKHKRTRQQT | 0.666 ± 0.021 |
| KFNFVRMSSLRL | 0.692 ± 0.16 |
| KFRLAGSVARSG | 0.684 ± 0.013 |
| KFSVVMFLDGSW | 0.697 ± 0.084 |
| KGENKRRVRKKN | 0.574 ± 0.014 |
| KGIDTYVLQRNE | 0.715 ± 0.0095 |
| KGKRKETKKTKG | 0.667 ± 0.017 |
| KGLKQLMQIRME | 0.605 ± 0.064 |
| KGQGAYEGVGKE | 0.663 ± 0.019 |
| KGRKVVLETQLQ | 0.7 ± 0.018 |
| KGRLVGWDRNRI | 0.75 ± 0.07 |
| KGRTEKRGEKRT | 0.717 ± 0.017 |
| KHEKGEKNKIEK | 0.664 ± 0.055 |
| KHIIPSAYTPEG | 0.661 ± 0.023 |
| KHKRKGSERKQG | 0.608 ± 0.0066 |
| KHQKNRLRDLGS | 0.708 ± 0.03 |
| KHVRIEVITERN | 0.635 ± 0.056 |
| KIGNQLQELRRI | 0.696 ± 0.017 |
| KIHINTMFQIKK | 0.536 ± 0.051 |
| KIIGVRLKFDRS | 0.761 ± 0.14 |
| KIKEIIKIKKKR | 0.678 ± 0.009 |
| KIKKKKYTKYTK | 0.553 ± 0.052 |
| KIKNKKNKCKKK | 0.751 ± 0.14 |

| Sequence | protein stability index |
| --- | --- |
| KIRDECFQPVNR | 0.674 ± 0.059 |
| KIYLKDKKKSKK | 0.668 ± 0.057 |
| KKAKRKHLLGRA | 0.66 ± 0.017 |
| KKDTTRGENYKP | 0.767 ± 0.016 |
| KKEGKTKSIRKK | 0.726 ± 0.013 |
| KKEKRQQEKIIK | 0.671 ± 0.04 |
| KKEQKKKNKNDR | 0.669 ± 0.025 |
| KKGREKKQQKER | 0.717 ± 0.015 |
| KKHKKEDNKEKK | 0.708 ± 0.051 |
| KKIKKKKQTKRK | 0.662 ± 0.039 |
| KKIKKKQTTLKR | 0.665 ± 0.081 |
| KKILNKEKSKMA | 0.7181 ± 0.0049 |
| KKIRSMRREGQR | 0.714 ± 0.08 |
| KKKEHQKIKNER | 0.675 ± 0.032 |
| KKKHIRTEKDNK | 0.704 ± 0.014 |
| KKKIINEKKKKD | 0.70019 ± 0.00067 |
| KKKKAKKIKKQK | 0.675 ± 0.059 |
| KKKKEEKKKSKK | 0.644 ± 0.041 |
| KKKKIKIKKKKI | 0.763 ± 0.043 |
| KKKKIKKKEKNK | 0.716 ± 0.079 |
| KKKKIKKKKINI | 0.597 ± 0.0067 |
| KKKKKKKETKKR | 0.661 ± 0.047 |
| KKKKKKKKKKKR | 0.633 ± 0.009 |
| KKKKKKKKKKPK | 0.611 ± 0.022 |
| KKKKKKKKQEQN | 0.63076 ± 3e-05 |

| Sequence | protein stability index |
| --- | --- |
| KKKKKKKKRNRK | 0.666 ± 0.018 |
| KKKKKKKSTKRN | 0.713 ± 0.037 |
| KKKKKKNTHNTK | 0.646 ± 0.07 |
| KKKKKKRYRKKI | 0.605 ± 0.024 |
| KKKKKNNKRQKQ | 0.593 ± 0.089 |
| KKKKLKQKKNKQ | 0.655 ± 0.008 |
| KKKKNNKKKQRT | 0.731 ± 0.027 |
| KKKKQIKKTKKK | 0.701 ± 0.047 |
| KKKKQKKRETTK | 0.636 ± 0.012 |
| KKKKQKNNRKKP | 0.574 ± 0.059 |
| KKKKRKGKRQPR | 0.671 ± 0.041 |
| KKKKRKKKKINI | 0.611 ± 0.038 |
| KKKKRQNIQNKK | 0.692 ± 0.054 |
| KKKLEIKIEKRE | 0.644 ± 0.042 |
| KKKNKKEDKRKK | 0.6942 ± 0.0031 |
| KKKNKKKQKEEK | 0.693 ± 0.012 |
| KKKNKKKRKGRK | 0.684 ± 0.037 |
| KKKNKKNKKKAE | 0.6915 ± 0.0047 |
| KKKQNVKSNEVG | 0.651 ± 0.096 |
| KKKRKEEIKKKK | 0.742 ± 0.012 |
| KKKRKKKQKIRK | 0.731 ± 0.08 |
| KKKTIKKTIKNQ | 0.702 ± 0.031 |
| KKKTKEKTRKKK | 0.702 ± 0.016 |
| KKKTKRKQKIET | 0.727 ± 0.022 |
| KKNKKKKIKMNK | 0.713 ± 0.038 |

| Sequence | protein stability index |
| --- | --- |
| KKNKKKRRAQKE | 0.669 ± 0.044 |
| KKNKKPKKQNNK | 0.681 ± 0.063 |
| KKNKNLTYKRMI | 0.716 ± 0.029 |
| KKNKRKLKKKKK | 0.72 ± 0.087 |
| KKNLHEQIGEAI | 0.687 ± 0.051 |
| KKNTKKKQVNQE | 0.747 ± 0.05 |
| KKPVNINNKLSA | 0.647 ± 0.017 |
| KKQKKKPQNKKK | 0.954 ± 0.066 |
| KKQKKWQSNTIR | 0.696 ± 0.034 |
| KKQKRRKGEREK | 0.637 ± 0.0023 |
| KKQQKKKNKNDR | 0.651 ± 0.017 |
| KKRKVKKKKPNG | 0.581 ± 0.033 |
| KKRYYNKKINEK | 0.699 ± 0.046 |
| KKSDTKKKGQNK | 0.673 ± 0.048 |
| KKSGTRDKNIQH | 0.676 ± 0.046 |
| KKSKKHEKKKNK | 0.711 ± 0.065 |
| KKTGITTNIKRW | 0.741 ± 0.23 |
| KKTITNNCPSYD | 0.6638 ± 0.0066 |
| KKTKKKKNKKQE | 0.716 ± 0.081 |
| KKTTKRKKEKQK | 0.633 ± 0.07 |
| KKVDLEDQRKER | 0.745 ± 0.008 |
| KLILGGSRGIMD | 0.646 ± 0.014 |
| KLNDTLKDRQNK | 0.67 ± 0.037 |
| KLNVRATPPPTI | 0.7 ± 0.055 |
| KLQKKTRQKKKK | 0.653 ± 0.035 |

| Sequence | protein stability index |
| --- | --- |
| KLRETQIHQGKT | 0.698 ± 0.021 |
| KLVGSLLSPDSE | 0.724 ± 0.015 |
| KMGKIQKVKGIK | 0.731 ± 0.012 |
| KMTSLSRVDIEE | 0.668 ± 0.087 |
| KMYILKGKIRKI | 0.612 ± 0.057 |
| KNCARIKERKDV | 0.627 ± 0.03 |
| KNEGYHNVTMNL | 0.707 ± 0.017 |
| KNKGKHKGGKYR | 0.721 ± 0.059 |
| KNKIKITKRKRK | 0.734 ± 0.0099 |
| KNKKKNQIENRT | 0.692 ± 0.0014 |
| KNQKTTKKKKKI | 0.543 ± 0.019 |
| KNSKKKKLKIER | 0.804 ± 0.27 |
| KNSLIKTKESRK | 0.6947 ± 0.0021 |
| KNVILKKNKNWL | 0.6746 ± 0.0063 |
| KPLPSHYPGRTP | 0.658 ± 0.016 |
| KPRSRMHRIVRI | 0.722 ± 0.027 |
| KPRTLRPDQNAT | 0.689 ± 0.0087 |
| KQDIETDKKEEG | 0.666 ± 0.13 |
| KQFGIHSRVFLM | 0.547 ± 0.021 |
| KQKNSNKKTQRI | 0.712 ± 0.021 |
| KQKTSRGTGQSL | 0.683 ± 0.1 |
